Results on 16 molecules are retold here after US20150044231A1 (Novo Nordisk, published 2015).

Changes are numbered by the printed parent chain. Numbers in names are those of the source.

One assay has as its target His-FcγRIII (158V) (UniProt P08637). Nature of the assay: SPR (BIAcore T100), Fc variant immobilised, His-FcγR as analyte. On the technique in general: In SPR one partner is held on a chip, and binding of the other changes the refractive index at the surface.
For a further assay, the target named is His-FcγRI (UniProt P12314). The assay is described as above.
Another assay concerns the target His-FcγRIIA (131H) (UniProt P12318). Described as above.
In the next assay the target is His-FcγRIIA (131R) (UniProt P12318). The description is as above.
The next assay deals with His-FcγRIIB (UniProt P31994). The assay is described as above.
The target of another assay is His-FcγRIII (158F) (UniProt P08637). The description is as above.
Assay [1] has as its target T1, human C5a receptor (human, UniProt P21730 1-350).
T1 sequence: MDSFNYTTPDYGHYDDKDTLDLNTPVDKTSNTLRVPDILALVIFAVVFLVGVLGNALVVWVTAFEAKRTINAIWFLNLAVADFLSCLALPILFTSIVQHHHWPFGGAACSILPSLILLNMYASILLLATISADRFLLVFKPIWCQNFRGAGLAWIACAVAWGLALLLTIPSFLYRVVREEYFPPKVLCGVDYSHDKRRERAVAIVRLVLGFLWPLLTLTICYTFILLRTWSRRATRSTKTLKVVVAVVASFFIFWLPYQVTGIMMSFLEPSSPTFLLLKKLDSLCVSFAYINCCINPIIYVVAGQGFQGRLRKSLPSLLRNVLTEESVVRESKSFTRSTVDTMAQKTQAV
In words: cell-based or functional assay.

Assay [2] has as its target T1, human C5a receptor. Nature of the assay: SPA, displacement of 125I-hC5a from RBL-hC5aR membranes. As for the experimental part: (§1) A detailed description of the SPA is provided in U.S. Pat. No. 4,568,649 and protocols provided by the manufacturer (Amersham Biosciences). Briefly, receptor-carrying membrane fragments purified from RBL-hC5aR cells bind to scintillating micro particles coated with wheat germ agglutinin (WGA). […] Specific for the SPA-principle, only radio isotope and particles in immediate proximity of each other will emit light. […] The % displacement was calculated as follows: […]
(In general: In a radioligand displacement assay an active substance lowers the binding of a labelled ligand.)

The target of assay [3] is T1, human C5a receptor. Nature of the assay: SPA, unlabelled hC5a displacing 125I-hC5a from RBL-hC5aR membranes. As for the experimental part: as §1
The target of assay [4] is T1, human C5a receptor. Nature of the assay: cell-based or functional assay. This is another data set of the same source.
In assay [5] the target is T1, human C5a receptor. Nature of the assay: cell-based or functional assay. This is another data set of the same source.

His-FcγRIIA (131R), sequence (P12318 36-218 H167R limits assumed): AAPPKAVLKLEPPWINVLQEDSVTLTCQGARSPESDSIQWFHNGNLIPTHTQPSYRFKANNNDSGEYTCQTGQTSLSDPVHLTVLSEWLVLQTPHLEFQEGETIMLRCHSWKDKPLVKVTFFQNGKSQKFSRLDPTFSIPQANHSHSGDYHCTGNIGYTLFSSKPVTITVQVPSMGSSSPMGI
His-FcγRI, sequence (P12314 16-288 limits assumed): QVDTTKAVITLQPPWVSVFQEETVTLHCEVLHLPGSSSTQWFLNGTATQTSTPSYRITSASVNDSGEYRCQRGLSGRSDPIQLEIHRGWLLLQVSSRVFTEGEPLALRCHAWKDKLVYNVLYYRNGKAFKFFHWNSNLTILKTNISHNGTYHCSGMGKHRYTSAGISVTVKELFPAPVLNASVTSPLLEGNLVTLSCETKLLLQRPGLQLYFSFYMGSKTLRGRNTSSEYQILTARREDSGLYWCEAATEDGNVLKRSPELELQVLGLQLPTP
His-FcγRIIB, sequence (P31994 46-217 limits assumed): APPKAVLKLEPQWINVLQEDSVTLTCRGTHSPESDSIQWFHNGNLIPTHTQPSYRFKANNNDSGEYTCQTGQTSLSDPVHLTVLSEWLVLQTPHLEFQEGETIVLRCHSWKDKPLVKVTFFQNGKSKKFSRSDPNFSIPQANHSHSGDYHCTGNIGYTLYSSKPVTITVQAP
His-FcγRIIA (131H), sequence (P12318 36-218 limits assumed): as the sequence (P12318 36-218 H167R limits assumed) above, with R132H counted along it
His-FcγRIII (158V), sequence (P08637 17-208 F176V limits assumed): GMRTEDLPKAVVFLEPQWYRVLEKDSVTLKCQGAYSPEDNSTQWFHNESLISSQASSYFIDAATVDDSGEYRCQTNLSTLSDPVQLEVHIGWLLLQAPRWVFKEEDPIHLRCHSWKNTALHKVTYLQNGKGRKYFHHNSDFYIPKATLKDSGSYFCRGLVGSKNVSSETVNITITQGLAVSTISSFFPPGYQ
His-FcγRIII (158F), sequence (P08637 17-208 limits assumed): as the sequence (P08637 17-208 F176V limits assumed) above, with V160F counted along it

With “Ref Ab Q variable region on IgG1 L234A, L235E (antibody)”, the Kd (commonly the equilibrium constant for the complex coming apart) in the assay with His-FcγRIII (158V) was 960 nM.

Turning to “Ref Ab Q variable region on IgG4 (S228P) reference (antibody)”, the dissociation constant (Kd) in the assay with His-FcγRI stood at 2.71 nM; with His-FcγRIIA (131H) it was 3520 nM; in the assay with His-FcγRIIA (131R), 800 nM; in the assay with His-FcγRIIB, 1080 nM.

For “Ref Ab Q variable region on IgG1 reference (antibody)”, the Kd with His-FcγRI was 0.664 nM; in the assay with His-FcγRIIA (131H) it was 640 nM; in the assay with His-FcγRIIA (131R) it was 950 nM; with His-FcγRIIB, 420 nM; in the assay with His-FcγRIII (158F), 330 nM.

In turn, “Ref Ab Q variable region on IgG1 N297Q (antibody)” displayed an equilibrium dissociation constant (Kd) in the assay with His-FcγRI of 360 nM.

“Ref Ab Q variable region on IgG4 (S228P) N297Q (antibody)” returned a dissociation constant (Kd) in the assay with His-FcγRI of 130 nM.

In the assay with His-FcγRIIB, “Ref Ab Q variable region on IgG2/4 V234A, G236A (antibody)” had a Kd of 5340 nM.

With “Ref Ab Q variable region on IgG1 L234A, L235E, G237A, A330S and P331S (antibody)”, the dissociation constant Kd with His-FcγRIIB amounted to 2100 nM.

B1: 35F24A3 (antibody, V domains shown)
VH: EVKLVESGGGLVKPGGSLKLSCSASGFAFSNYDMSWVRQTPEKRLEWVAAFSSDGYTFYPDSLKGRFTISRDNARNTLYLQMSSLGSEDTALYCCARHADYANYPVMDYWGQGTSVTVSS
VL: DIQMTQSPSSLSASVGDRVTITCRASQGISSWLAWYQQKPEKAPKSLIYAASSLQSGVPSRFSGSGSGTDFTLTISSLQPEDFATYYCQQYNSYPRTFGQGTKVEIKR
notes: Human monoclonal antibody from HumAb mice, purified from hybridoma supernatant
Take B1: in the assay with human C5a receptor [1], the “Migration of human neutrophils (in % compared to migration in the absence of antibody)” value was 30%. The IC50 – broadly, the concentration that gives 50% inhibition – with human C5a receptor [2] amounted to 2.97 nM.

B2: Ref Ab Q variable region on IgG2 reference (antibody, part only; not given: Variable regions of Ref Ab Q, not shown: another chain or arm of the molecule)
constant: ASTKGPSVFPLAPCSRSTSESTAALGCLVKDYFPEPVTVSWNSGALTSGVHTFPAVLQSSGLYSLSSVVTVPSSNFGTQTYTCNVDHKPSNTKVDKTVERKCCVECPPCPAPPVAGPSVFLFPPKPKDTLMISRTPEVTCVVVDVSHEDPEVQFNWYVDGVEVHNAKTKPREEQFNSTFRVVSVLTVVHQDWLNGKEYKCKVSNKGLPAPIEKTISKTKGQPREPQVYTLPPSREEMTKNQVSLTCLVKGFYPSDIAVEWESNGQPENNYKTTPPMLDSDGSFFLYSKLTVDKSRWQQGNVFSCSVMHEALHNHYTQKSLSLSPGK
Turning to B2, the dissociation constant Kd was found to be 220 nM with His-FcγRIIA (131H), 2790 nM in the assay with His-FcγRIIA (131R), 1540 nM with His-FcγRIIB and 1500 nM in the assay with His-FcγRIII (158V).

B3: Ref Ab Q variable region on IgG4 (S228P) E233P, F234V, L235A (antibody, part only; not given: Variable regions of Ref Ab Q, not shown: another chain or arm of the molecule)
constant: ASTKGPSVFPLAPCSRSTSESTAALGCLVKDYFPEPVTVSWNSGALTSGVHTFPAVLQSSGLYSLSSVVTVPSSSLGTKTYTCNVDHKPSNTKVDKRVESKYGPPCPPCPAPPVAGGPSVFLFPPKPKDTLMISRTPEVTCVVVDVSQEDPEVQFNWYVDGVEVHNAKTKPREEQFNSTYRVVSVLTVLHQDWLNGKEYKCKVSNKGLPSSIEKTISKAKGQPREPQVYTLPPSQEEMTKNQVSLTCLVKGFYPSDIAVEWESNGQPENNYKTTPPVLDSDGSFFLYSRLTVDKSRWQEGNVFSCSVMHEALHNHYTQKSLSLSLGK
In the assay with His-FcγRI, B3 registered a Kd of 380 nM.

B4: human C5a (ligand, UniProt P01031 678-751, looked up)
chain: TLQKKIEEIAAKYKHSVVKKCCYDGACVNNDETCEQRAARISLGPRCIKAFTECCVVASQLRANISHKDMQLGR
notes: C5a is only a fragment of it; also called hC5a
Consider B4, for which the IC50 in the assay with human C5a receptor [3] was 4.1 nM.

B5: Ref Ab Q variable region on IgG2/IgG4 reference (antibody, part only; not given: Ref Ab Q variable regions, part only)
heavy, part: ASTKGPSVFPLAPCSRSTSESTAALGCLVKDYFPEPVTVSWNSGALTSGVHTFPAVLQSSGLYSLSSVVTVPSSNFGTQTYTCNVDHKPSNTKVDKTVERKCCVECPPCPAPPVAGPSVFLFPPKPKDTLMISRTPEVTCVVVDVSQEDPEVQFNWYVDGVEVHNAKTKPREEQFNSTYRVVSVLTVLHQDWLNGKEYKCKVSNKGLPSSIEKTISKAKGQPREPQVYTLPPSQEEMTKNQVSLTCLVKGFYPSDIAVEWESNGQPENNYKTTPPVLDSDGSFFLYSRLTVDKSRWQEGNVFSCSVMHEALHNHYTQKSLSLSLGK
As to B5, the equilibrium dissociation constant (Kd) with His-FcγRIIA (131H) came to 1030 nM; with His-FcγRIIB, 1830 nM.

B6: 35F32A3 (antibody, V domains shown)
VH: QVQLVESGGGLVRPGRSLRLSCAASGFTFRDYGMHWVRQAPGKSLEWVAVIWFDGINKYYGDSVKGRFTISRDNSKNTLYLQMNSLRAEDTAMYYCVGTYFGPGTTEFFQHWGQGTLVTVSS
VL: EIVLTQSPATLSLSPGERATLSCRASQSVSSYLAWYQQKPGQAPRLLIYDASNRATGIPARFSGSGSGTDFTLTISSLEPEDFAVYYCQQRSNWPTFGPGTKVDIKR
notes: as for B1
Consider B6, for which the “Migration of human neutrophils (in % compared to migration in the absence of antibody)” value with human C5a receptor [1] turned out to be 11%. In the assay with human C5a receptor [2], this molecule came in with a 50% inhibitory concentration (IC50) of 0.95 nM.

B7: 35F12A2 (antibody, V domains shown)
VH: QVQLVESGGGVVQPGRSLRLSCVASGFTFSNYGMHWVRQAPGKGLEWVAVIWYDGINKYYADSVKGRFTISRDNSKSTLYLQMNSLRAEDTAVYYCAGTYYTSGSSKHFQPWGQGTLVTVSS
VL: B6 VL with A34S
notes: as for B1
For the molecule B7, the “Migration of human neutrophils (in % compared to migration in the absence of antibody)” value with human C5a receptor [1] is 19%. The molecule further returned an IC50 in the assay with human C5a receptor [2] of 2.04 nM.

B8: 32F3A6 GL (antibody, human IgG1, V domains shown)
VH: EVQLVESGGGLVQPGGSLRLSCAASGFTFSSYVMHWVRQATGKGLEWVSAIDTGGGTYYADSVKGRFTISRENAKNSLYLQMNSLRAGDTAVYYCARDYYYYASGSYYKAFDIWGQGTMVTVSS
VL: EIVLTQSPGTLSLSPGERATLSCRASQSVSSRYLAWYQQKPGQAPRLLIYGASSRATGIPDRFSGSGSGTDFTLTISRLEPEDFAVYYCQQYGSPLTFGQGTKLEIKR
Regarding B8, the “IC50, Neutrophil migration (Chemotaxis) Assay” value in the assay with human C5a receptor [4] was 1 µg/mL. Also, in the assay with human C5a receptor [5], the “IC50 CD11b up-regulation” value is 0.7 µg/mL, the “IC50 CD62L down-regulation” value was found to be 0.5 µg/mL and the “IC50 Calcium-flux assay” value worked out at 1.8 µg/mL.

B9: 32F3A6 (antibody, V domains shown)
VH: B8 VH with E6Q, Q13H, A24G, T41P, E72D, G88E, T90M
VL: B8 VL
notes: as for B1
Turning to B9, the “Migration of human neutrophils (in % compared to migration in the absence of antibody)” value with human C5a receptor [1] stood at 2%. In addition, the IC50 with human C5a receptor [2] is 1.9 nM.
